Test [1] addresses T1, cynomolgus FcRH5 protein fragment (soluble) (cynomolgus monkey).
T1 construct: whole entry named; also called Cyno FcRH5 (BIACORE analyte)
T1 chain: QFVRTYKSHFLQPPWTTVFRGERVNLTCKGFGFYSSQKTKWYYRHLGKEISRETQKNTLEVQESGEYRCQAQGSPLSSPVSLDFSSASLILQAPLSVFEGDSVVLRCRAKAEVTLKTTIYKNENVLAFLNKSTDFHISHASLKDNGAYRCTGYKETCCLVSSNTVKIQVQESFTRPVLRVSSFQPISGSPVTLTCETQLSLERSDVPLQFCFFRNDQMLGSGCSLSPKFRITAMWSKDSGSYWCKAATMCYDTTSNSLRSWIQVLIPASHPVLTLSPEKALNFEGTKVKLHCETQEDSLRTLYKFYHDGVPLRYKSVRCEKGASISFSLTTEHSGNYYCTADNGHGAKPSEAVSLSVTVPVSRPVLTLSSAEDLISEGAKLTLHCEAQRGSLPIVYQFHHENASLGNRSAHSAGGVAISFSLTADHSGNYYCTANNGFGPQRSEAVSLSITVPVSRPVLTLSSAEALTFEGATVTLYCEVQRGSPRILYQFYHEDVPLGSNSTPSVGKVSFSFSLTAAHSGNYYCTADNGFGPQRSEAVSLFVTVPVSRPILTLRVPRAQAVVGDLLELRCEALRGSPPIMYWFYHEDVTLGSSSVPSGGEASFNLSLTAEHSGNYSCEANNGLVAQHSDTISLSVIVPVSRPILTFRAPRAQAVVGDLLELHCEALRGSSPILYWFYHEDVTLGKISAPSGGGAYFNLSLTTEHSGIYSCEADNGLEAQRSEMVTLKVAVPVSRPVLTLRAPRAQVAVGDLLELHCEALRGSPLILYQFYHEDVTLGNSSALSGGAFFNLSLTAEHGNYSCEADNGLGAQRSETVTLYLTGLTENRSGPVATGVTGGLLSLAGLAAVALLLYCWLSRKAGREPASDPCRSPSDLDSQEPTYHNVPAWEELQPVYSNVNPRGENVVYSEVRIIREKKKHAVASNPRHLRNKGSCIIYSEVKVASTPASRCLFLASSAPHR
Description: SPR (BIACORE), TDB captured as ligand, Cyno FcRH5 as analyte, 25 °C, 1:1 binding model. In general terms: In SPR one partner is held on a chip, and binding of the other changes the refractive index at the surface.

Test [2] addresses T1, cynomolgus FcRH5 protein fragment …. Description: BIACORE, hIgG capture, 1:1 model, monovalent. How it is done: Briefly, a human IgG capture surface was generated on a Series S CM5 chip using amine coupling and the human IgG capture kit (GE Life Sciences, Piscataway, NJ). Test antibodies were then captured on flow cells 2, 3, or 4, with flow cell 1 used as a reference. An FcRH5 protein fragment was used as the analyte, with a flow rate of […]. Between injections the capture surface was regenerated by a 30-second injection of 3M magnesium chloride or 10 mM glycine, pH 1.5. Interactions were assessed at 25° C. in 10 mM HEPES pH7.4, 150 mM NaCl, and 0.05% Tween 20 (HBSP). Reference data from the reference flow cell and from injection of buffer alone were subtracted prior to kinetic analysis. Kinetic information was calculated by fitting data to a 1:1 binding model. Reference subtraction and data fitting were performed using BIAevaluation software (GE Life Sciences, Piscataway, NJ).
Kinetic characterization experiments were carried out (see Table 8). In these experiments, binding of soluble FcRH5 protein fragment to purified antibodies in human TDB antibody format was analyzed at six different non-zero concentrations (a 1:3 dilution series, one concentration injected twice as a replicate). Flow rate was set at 40 μl/min and association and dissociation monitored for 600 s.

Test [3] has as its target T2, human FcRH1 (full-length, on SVT2 cells) (human, UniProt Q96LA6 17-429).
T2 construct: whole, on cells; also called SVT2-FcRH1
T2 sequence (looked up): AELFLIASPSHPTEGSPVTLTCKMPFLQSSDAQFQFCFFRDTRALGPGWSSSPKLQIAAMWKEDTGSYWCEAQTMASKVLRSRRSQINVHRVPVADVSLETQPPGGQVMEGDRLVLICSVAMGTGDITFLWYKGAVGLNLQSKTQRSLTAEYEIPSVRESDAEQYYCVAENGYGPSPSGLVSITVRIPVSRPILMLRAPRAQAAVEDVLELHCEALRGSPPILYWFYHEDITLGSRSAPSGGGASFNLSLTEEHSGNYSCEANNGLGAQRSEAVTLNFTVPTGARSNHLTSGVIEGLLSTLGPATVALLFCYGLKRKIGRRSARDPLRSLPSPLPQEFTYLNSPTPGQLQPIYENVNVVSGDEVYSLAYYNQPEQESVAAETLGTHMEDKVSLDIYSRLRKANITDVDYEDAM
In words: flow cytometry on SVT2-FcRH1 cells, PE-labelled secondary. How it is done:
(§1) Human FcRH5, cyno FcRH5, human FcRH1, FcRH2, FcRH3, and FcRH4 transfected mouse SVT2 cells were used to test binding and cross-reactivity of FcRH5 TDBs. The method was carried out as follows. Cultured SVT2 cells were lifted using non-enzyme cell dissociation buffer (Sigma, #C5914). 1×10⁵ cells were suspended in 100 μL and incubated with FcRH5 TDBs at 3 μg/ml. […] Cells were washed twice with FACS buffer before flow cytometry analysis was carried out on a FACSCalibur.

Test [4] has as its target T3, human FcRH2 (full-length, on SVT2 cells) (human, UniProt Q96LA5 20-508).
T3 construct: whole, on cells; also called SVT2-FcRH2
T3 sequence (looked up): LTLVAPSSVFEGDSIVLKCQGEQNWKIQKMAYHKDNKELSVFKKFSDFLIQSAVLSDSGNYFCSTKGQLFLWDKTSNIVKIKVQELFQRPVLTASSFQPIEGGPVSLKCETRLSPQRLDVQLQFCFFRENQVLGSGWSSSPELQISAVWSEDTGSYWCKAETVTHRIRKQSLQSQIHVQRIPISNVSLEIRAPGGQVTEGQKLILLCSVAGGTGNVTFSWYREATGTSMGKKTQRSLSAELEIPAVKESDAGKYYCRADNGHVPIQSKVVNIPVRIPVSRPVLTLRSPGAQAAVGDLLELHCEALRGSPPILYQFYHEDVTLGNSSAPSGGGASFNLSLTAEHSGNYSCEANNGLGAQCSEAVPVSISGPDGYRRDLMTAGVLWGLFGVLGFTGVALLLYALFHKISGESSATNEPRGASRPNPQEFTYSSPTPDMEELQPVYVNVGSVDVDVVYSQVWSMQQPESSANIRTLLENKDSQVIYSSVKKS
In words: flow cytometry on SVT2-FcRH2 cells, PE-labelled secondary. How it is done: as §1
In general terms: A flow cytometer gives signals particle by particle.

The source of these data is patent US20240383984A1 (Genentech, published 2024).

Residue numbers refer to the chain shown, from its start.

B1: hu1G7.v1.4/38E4.v1 TDB (bispecific antibody, V domains shown)
VH 1: EVQLVESGPGLVKPSETLSLTCTVSGFSLTRFGVHWVRQPPGKGLEWLGVIWRGGSTDYNAAFMSRLTISKDNSKNQVSLKLSSVTAADTAVYYCSNHYYGSSDYALDNWGQGTLVTVSS
VL 1: DIQMTQSPSSLSASVGDRVTITCKASQDVRNLVVWFQQKPGKAPKLLIYSGSYRYSGVPSRFSGSGSGTDFTLTISSLQPEDFATYYCQQHYSPPYTFGQGTKVEIK
VH 2: EVQLVQSGAEVKKPGASVKVSCKASGFTFTSYYIHWVRQAPGQGLEWIGWIYPENDNTKYNEKFKDRVTITADTSTSTAYLELSSLRSEDTAVYYCARDGYSRYYFDYWGQGTLVTVSS
VL 2: DIVMTQSPDSLAVSLGERATINCKSSQSLLNSRTRKNYLAWYQQKPGQSPKLLIYWTSTRKSGVPDRFSGSGSGTDFTLTISSLQAEDVAVYYCKQSFILRTFGQGTKVEIK
notes: knob-into-hole TDB; also called 1G7.v1.4 TDB; 1G7.v1.4 (TDB format)
A word on the Kd: it is the constant that tells how readily two partners part at equilibrium. The koff is the rate constant with which the complex falls apart. A higher koff goes with fast dissociation. By kon is commonly meant the rate constant with which the complex forms. In test [1], B1 yielded a Kd of 6.27 nM, a koff of 0.000847 s⁻¹ and a kon of 135000 M⁻¹ s⁻¹.

B2: 1G7.v85/38E4.v1 TDB (bispecific antibody, V domains shown)
VH 1: B1 VH 1 with M64V
VL 1: B1 VL 1
VH 2: B1 VH 2
VL 2: B1 VL 2
notes: knob-into-hole TDB; also called 1G7.v85 TDB; 1G7.v85 (TDB format)
In test [2], B2 returned a Kd of 6.76 nM. Moreover, the binding result in test [3] and in test [4] was “no binding” each time.
